Series [1] deals with the molecule itself. Briefly: crystal structure.
Series [2] concerns the molecule itself. Nature of the series: crystal structure. This is another data set of the same source.

Read-outs that look alike come from different tables or passages of the source.

B1: mouse TREX1 catalytic core (residues 1-242), wild type (enzyme, UniProt Q91XB0 1-242, looked up)
chain: MGSQTLPHGHMQTLIFLDLEATGLPSSRPEVTELCLLAVHRRALENTSISQGHPPPVPRPPRVVDKLSLCIAPGKACSPGASEITGLSKAELEVQGRQRFDDNLAILLRAFLQRQPQPCCLVAHNGDRYDFPLLQTELARLSTPSPLDGTFCVDSIAALKALEQASSPSGNGSRKSYSLGSIYTRLYWQAPTDSHTAEGDVLTLLSICQWKPQALLQWVDEHARPFSTVKPMYGTPATTGTT
B1: the binding result in “crystal structure [1]” is “binds”.

B2: mouse TREX1 catalytic core (residues 1-242), V201D mutant (enzyme, UniProt Q91XB0 1-242, looked up)
chain: MGSQTLPHGHMQTLIFLDLEATGLPSSRPEVTELCLLAVHRRALENTSISQGHPPPVPRPPRVVDKLSLCIAPGKACSPGASEITGLSKAELEVQGRQRFDDNLAILLRAFLQRQPQPCCLVAHNGDRYDFPLLQTELARLSTPSPLDGTFCVDSIAALKALEQASSPSGNGSRKSYSLGSIYTRLYWQAPTDSHTAEGDDLTLLSICQWKPQALLQWVDEHARPFSTVKPMYGTPATTGTT
As for B2, the binding result in the series “crystal structure [2]” is “binds”.

B3: mouse TREX1 catalytic core (residues 1-242), D200N mutant (enzyme, UniProt Q91XB0 1-242, looked up)
chain: MGSQTLPHGHMQTLIFLDLEATGLPSSRPEVTELCLLAVHRRALENTSISQGHPPPVPRPPRVVDKLSLCIAPGKACSPGASEITGLSKAELEVQGRQRFDDNLAILLRAFLQRQPQPCCLVAHNGDRYDFPLLQTELARLSTPSPLDGTFCVDSIAALKALEQASSPSGNGSRKSYSLGSIYTRLYWQAPTDSHTAEGNVLTLLSICQWKPQALLQWVDEHARPFSTVKPMYGTPATTGTT
Turning to B3, the binding result in the series “crystal structure [2]” is listed as “binds”.

B4: mouse TREX1 catalytic core (residues 1-242), D200H mutant (enzyme, UniProt Q91XB0 1-242, looked up)
chain: MGSQTLPHGHMQTLIFLDLEATGLPSSRPEVTELCLLAVHRRALENTSISQGHPPPVPRPPRVVDKLSLCIAPGKACSPGASEITGLSKAELEVQGRQRFDDNLAILLRAFLQRQPQPCCLVAHNGDRYDFPLLQTELARLSTPSPLDGTFCVDSIAALKALEQASSPSGNGSRKSYSLGSIYTRLYWQAPTDSHTAEGHVLTLLSICQWKPQALLQWVDEHARPFSTVKPMYGTPATTGTT
In the case of B4, the binding result in the series “crystal structure [2]” was “binds”.

B5: mouse TREX1 catalytic core (residues 1-242), D18N mutant (enzyme, UniProt Q91XB0 1-242, looked up)
chain: MGSQTLPHGHMQTLIFLNLEATGLPSSRPEVTELCLLAVHRRALENTSISQGHPPPVPRPPRVVDKLSLCIAPGKACSPGASEITGLSKAELEVQGRQRFDDNLAILLRAFLQRQPQPCCLVAHNGDRYDFPLLQTELARLSTPSPLDGTFCVDSIAALKALEQASSPSGNGSRKSYSLGSIYTRLYWQAPTDSHTAEGDVLTLLSICQWKPQALLQWVDEHARPFSTVKPMYGTPATTGTT
Turning to B5, the binding result in “crystal structure [2]” was “binds”.

(Values after PMC3253924 (DNA Repair, 2011).)
